Data reported in article PMC1166539, “Determination of thermodynamic parameters of Xerocomus chrysenteron lectin interactions with N-acetylgalactosamine and Thomsen-Friedenreich antigen by isothermal titration calorimetry” (BMC Biochemistry, 2005).

T1: XCL (XCLtag), Xerocomus chrysenteron lectin (Xerocomellus chrysenteron, UniProt Q8WZC9)
T1 construct: recombinant, E. coli BL21(DE3); homotetramer
T1 sequence (Q8WZC9 1-143): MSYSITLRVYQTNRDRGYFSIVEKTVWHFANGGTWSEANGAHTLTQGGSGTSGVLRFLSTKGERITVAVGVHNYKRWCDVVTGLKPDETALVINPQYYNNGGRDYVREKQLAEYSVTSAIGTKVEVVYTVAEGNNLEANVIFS

B1: fetuin from fetal bovine serum (natural protein, UniProt P12763 19-359, looked up)
chain: IPLDPVAGYKEPACDDPDTEQAALAAVDYINKHLPRGYKHTLNQIDSVKVWPRRPTGEVYDIEIDTLETTCHVLDPTPLANCSVRQQTQHAVEGDCDIHVLKQDGQFSVLFTKCDSSPDSAEDVRKLCPDCPLLAPLNDSRVVHAVEVALATFNAESNGSYLQLVEISRAQFVPLPVSVSVEFAVAATDCIAKEVVDPTKCNLLAEKQYGFCKGSVIQKALGGEDVRVTCTLFQTQPVIPQPQPDGAEAEAPSAVPDAAGPTPSAAGPPVASVVVGPSVVAVPLPLHRAHYDLRHTFSGVASVESSSGEAFHVGKTPIVGQPSIPGGPVRLCPGRIRYFKI
modifications: three carbohydrate units O-linked to Thr or Ser residues and three complex glycans N-linked to Asn residues (a fourth O-linked residue may exist); exposed Gal residues linked to sialic acid residues
notes: fetuin (fetuin-A, alpha-2-HS-glycoprotein), bovine, from fetal bovine serum; glycoprotein bearing the Thomsen-Friedenreich antigen motif; also called native fetuin; source: bought: Sigma (from fetal bovine serum)
B2: asialofetuin from fetal bovine serum (natural protein, UniProt P12763 19-359, looked up)
chain: IPLDPVAGYKEPACDDPDTEQAALAAVDYINKHLPRGYKHTLNQIDSVKVWPRRPTGEVYDIEIDTLETTCHVLDPTPLANCSVRQQTQHAVEGDCDIHVLKQDGQFSVLFTKCDSSPDSAEDVRKLCPDCPLLAPLNDSRVVHAVEVALATFNAESNGSYLQLVEISRAQFVPLPVSVSVEFAVAATDCIAKEVVDPTKCNLLAEKQYGFCKGSVIQKALGGEDVRVTCTLFQTQPVIPQPQPDGAEAEAPSAVPDAAGPTPSAAGPPVASVVVGPSVVAVPLPLHRAHYDLRHTFSGVASVESSSGEAFHVGKTPIVGQPSIPGGPVRLCPGRIRYFKI
modifications: O-linked and N-linked glycans as in fetuin, but the sialic acid residues are absent
notes: fetuin (fetuin-A, alpha-2-HS-glycoprotein), bovine, from fetal bovine serum, without sialic acids (asialofetuin); Same polypeptide as fetuin; it differs only in lacking sialic acid on the glycans; source: bought: Sigma (from fetal bovine serum)
B3: Xerocomus chrysenteron lectin with histidine tag and TEV site (natural protein, UniProt Q8WZC9 1-143, looked up)
chain: MSYSITLRVYQTNRDRGYFSIVEKTVWHFANGGTWSEANGAHTLTQGGSGTSGVLRFLSTKGERITVAVGVHNYKRWCDVVTGLKPDETALVINPQYYNNGGRDYVREKQLAEYSVTSAIGTKVEVVYTVAEGNNLEANVIFS
notes: lectin from the mushroom Xerocomus chrysenteron (XCL); expressed as a fusion of histidine tag, TEV site and XCL; The fits used the monomer concentration; also called XCL; XCLtag

Legend:
[1] = biological target: T1, XCL (XCLtag), Xerocomus chrysenteron lectin; assay: isothermal titration calorimetry; assay type: binding; details: 25 mM sodium phosphate pH 7, 27°C
[2] = biological target: B3; assay: ITC; 2 mM fetuin or asialofetuin titrated (38 injections of 5 ul) into 0.25 mM XCLtag in the cell; 27°C; 25 mM Na2HPO4/NaH2PO4, pH 7; XCL monomer concentration used in the fit; details: both partners purified
[3] = biological target: B3; assay: as above; details: both partners purified; remark: listed apart in the source
[4] = biological target: B2; assay: as above; details: both partners purified
[5] = biological target: B1; assay: as above; details: both partners purified

Row | Molecule | stoichiometry N [2] | dH [3] [kcal/mol] | also measured
1 | CC(=O)N[C@H]1C(O)O[C@H](CO)[C@H](O)[C@@H]1O (some centres unmarked) [N-acetylgalactosamine] |  |  | Ka, M^-1 ([1]; no PEG, per monomer, abstract prints Kd 5.2 μM, inconsistent with this Ka (reciprocal 5.2 mM)): 192 ± 5
2 | CC(=O)N[C@H]1C(O)O[C@H](CO)[C@@H](O[C@@H]2O[C@H](CO)[C@H](O)[C@H](O)[C@H]2O)[C@@H]1O (some centres unmarked) [N-acetyllactosamine] |  |  | Kd ([1]; significant fitting errors stated for Ka below 100 M^-1, read-out: affinity constant (converted)): ~20 mM
3 | B1 | 0.23 | -21.5 ± 0.5 | 
4 | B2 | 0.23 | -16.8 ± 2.5 | 
5 | B3 |  |  | Ka [4]: 2.59e+06 ± 0.6 M⁻¹; Ka [5]: 590000 ± 1.4 M⁻¹
